Results: the DeepSol protein solubility set

Test: soluble on expression in E. coli; label from the status in PepcDB or PDB records
In the case of “MGSDKIHHHHHHMSSEEDYFDELEYDLADEVNEEKEDIQTKKLTTVNCQTEKFNPFEILPESIELFRTLALISPDRLSLSETAQILPKIVDLKRILQQQEIDFIKLLPFFNEIIPLIKSNIKLMHNFLISLYSRRFPELSSLIPSPLQYSKVISILENENYSKNESDELFFHLENKAKLTREQILVLTMSMKTSFKNKEPLDIKTRTQILEANSILENLWKLQEDIGQYIASKISIIAPNVCFLVGPEIAAQLIAHAGGVLEFSRIPSCNIASIGKNKHLSHELHTLESGVRQEGYLFASDMIQKFPVSVHKQMLRMLCAKVSLAARVDAGQKNGDRNTVLAHKWKAELSKKARKLSEAPSISETKALPIPEDQPKKKRAGRKFRKYKEKFRLSHVRQLQNRMEFGKQEQTVLDSYGEEVGLGMSNTSLQQAVGATSGSRRSAGNQAKLTKVMKHRISEANQQADEFLISLGHNTEQPNLSPEMVQMHKKQHTNPEEETNWFSGHG”, the “soluble on expression in E. coli” value was “not soluble”. In the case of “MTIYFLFGKTGSGKSYIGELLRQLSIVHIDGDNHITQKMRDCLIEDEQMTPEMIDEFVDVLIDVIKTQKTKTPNESFVISQAMYLDKHRLKLLNAIPELEFVMIDVIPVLRASRITNRFRNQESKVSLRYATRMDAFFEYPSHETIRLENNQSSDETLIEQIREKMPALFNMESKEELNSGIQLQFALEHHHHHH”, the “soluble on expression in E. coli” value was “soluble”. With “MGSDKIHHHHHHMTKEFTPILLGSDINVYGMARSFNEAYGIRVKALADVQLAATRYSKIVDVELHHGFSADPTFMDVMRKKMEIYKDHKEPVILIACGDGYAELLSKHKDELSKVFIVPYIEYDLLEKLISKEGFYEVAEEYGLPYPKTKIITMDDYKSGKYKDVPFQFPVELKPEDPVSWLNCQFEGRKKTFTLHDENEFEDIVTKIYTHGYTEDLILQDFIPGDDSNMRTLNAYVDKNHQVKMMCLGHPLLEDPTPQSIGNYMTILPAYDEKLYEQVQSFLEKLNYTGMANFDIKYDERDGQYKFFEINLRQGRSSFYVTLNGYNLAKWYIDDYVEDNLSDKKTVYGNKLKSKHVLWMGVPVKIFKEYAFENEAKDTAEELIHEGRYGTTVFYDKDRSLKRWLLMKYMFHNYFARYKKYYEVNKGQYFKKNK” the “soluble on expression in E. coli” value was “not soluble”. In the case of “MGSDKIHHHHHHMIYIDKNESPVTPLDEKTMTSIISATPYNLYPDAAYEQFKEAYAKFYGLSPEQIIAGNGSDELIQKLMLIMPEGPALTLNPDFFMYQAYAAQVNREIAFVDAGSDLTFDLETILTKIDEVQPSFFIMSNPHNPSGKQFDTAFLTAIADKMKALNGYFVIDEAYLDYGTAYDVELAPHILRMRTLSKAFGIAGLRLGVLISTAGTIKHIQKIEHPYPLNVFTLNIATYIFRHREETRVFLTMQRQLAEQLKQIFDTHVADKMSVFPSNANFVLTKGSAAHQLGQYVYEQGFKPRFYDEPVMKGYVRYSIATASQLKQLEEIVKEWSAKYDLSKTTKHS”, the “soluble on expression in E. coli” value was “not soluble”. For “MIKQTIVALLLSVGASSVFAAGTVKVFSNGSSEAKTLTGAEHLIDLVGQPRLANSWWPGAVISEELATAAALRQQQALLTRLAEQGADSSADDAAAINALRQQIQALKVTGRQKINLDPDIVRVAERGNPPLQGNYTLWVGPPPSTVTLFGLISRPGKQPFTPGRDVASYLSDQSLLSGADRSYAWVVYPDGRTQKAPVAYWNKRHVEPMPGSIIYVGLADSVWSETPDALNADILQTLTQRIPQ”, the “soluble on expression in E. coli” value was “not soluble”. For “MSLKEESLLEYYAQDSFYAEYSSGTGYEIQERALRSTFSRYMKELHKRNVTGGKLLEIGCGFGFLLDEAKNYFDYRIGTDFSSEAVSHAKKYADNVYCGGLEAIPSDTSTKFDCVITFSVLEHVYNPNTFIQEIQNYMAPNGSLVVSTPFIGGMWYKILGKKWSFFIPPEHVCLYNHNSISQLLKQNGFKNIEMFISSHAWPVAGFLSKMGMRKLSSMTLKLKIGDVPLFVPFTIINIIGSKEGHHHHHH”, the “soluble on expression in E. coli” value was “not soluble”. With “MGSDKIHHHHHHMTVSMEQLEAFVAAAEHGSFSAAGRALRKAQSAVSTQVSNLEEDLGLELFSRQGRNPTLTAAGERLLSEARLILDRREHLIGVAASFEAHVEKRLVVAIDELYPEHALGELFAEFAVHFPHVELELLFPMMEDVSRLVLDGKADIGVMWRQEDLPAELGFHTIGWVQLKLVCGRNHPLANAVVGWEDLKRHRQIMVTVRTEGMERHRLRVAAEVWWVESHWVILQILKQGIGWALIPAHILARSPVAQDLAIPALQFDDGAHPVALELVWHKQRPSGPAATWLRKRFATTKIDMVAE” the “soluble on expression in E. coli” value was “not soluble”. For “MAHHHHHHMFGTTRVWRNTFLTKSVATPPISVIRTGPRWWADPERMVRQKLMYFTLGVDQLPLRRTAVIQKDLHRFHMCKPPPRIGDTTGYKRSRAAQLTTWYRRIQYQEYHLQHLFTRHVWGLVRAYPGNTTKIQGKADDGYVGYDSVPYHRYNRTPLPFPAREIYGRRE”, the “soluble on expression in E. coli” value was “not soluble”. In the case of “MFNYERPKHFIQSQNPCGSRLQPPGPETSSFSSQTKQSSIIIQPRQCTEQRFSASSTLSSHITMSSSAFPASPQQHAGSNPGQRVTTTYNQSPASFLSSILPSQPDYNSSKIPSAMDSNYQQSSAGQPINAKPSQTANAKPIPRTPDHEIQGSKEALIQDLERKLKCKDTLLHNGNQRLTYEEKMARRLLGPQNAAAVFQAQDDSGAQDSQQHNSEHARLQVPTSQVRSRSTSRGDVNDQDAIQEKFYPPRFIQVPENMSIDEGRFCRMDFKVSGLPAPDVSWYLNGRTVQSDDLHKMIVSEKGLHSLIFEVVRASDAGAYACVAKNRAGEATFTVQLDVLAKEHKRAPMFIYKPQSKKVLEGDSVKLECQISAIPPPKLFWKRNNEMVQFNTDRISLYQDNTGRVTLLIKDVNKKDAGWYTVSAVNEAGVTTCNTRLDVTARPNQTLPAPKQLRVRPTFSKYLALNGKGLNVKQAFNPEGEFQRLAAQSGLYESEEL”, the “soluble on expression in E. coli” value was “soluble”. For “TQLHATRQAIVEAGQAIKMDKNGVQKLPVLNIYNEQQKWQKHQLMVENLPLNQVLQELDRNYKGKIIFNDAALQHVRVNAVLPLDQTTESLKLLATVFPDLKIKQIMPFVVMVSLK”, the “soluble on expression in E. coli” value was “not soluble”. With “MGSDKIHHHHHHMTKIGEKRYIFYLTNTKIDQSIMLSELKTFIAVSQYGTFSGAGARIGLTQSAVSAQMQRLEEELGFALFDRTGRSATLNDAGRETLALAEEMMTLYARLSERGAVAAESGMLRVGAIASAQVSFLADALARFRDDRPGWRIRVVPGVSLGLLGQVDSGELDLAVIIKPPFALPSELEWRTLVTEPFVLLVPKALVRGKGNARSWRELLRSEPFIRYDRTSFGGRLVDRFLRRSRLNVHDVIELDELQGIVQLVARGIGVALIPDSAGLGKWPAGVAALELGEATFQREIGLVQRPRHSRQAVAGVLADCIGTAAGV” the “soluble on expression in E. coli” value was “not soluble”. With “MTAARSAPSPAGAPRPGLRERKKTRTREAIRAATYGLIRQQGYEATTVEQIAERAEVSPSTVLRYFPTREDIVLTDEYDPVMAAELAARPAGEPWSDSLRHVLRKALGLGAGEEAELIRLRTRLLAEVPAVRARMLENMSDTGRMLARAIADRTGLDPDGLEVRIVSMSLVGGLMEVSRYWAEHDHEESLAELVDRALDALENGLPALRESDRESDREGDRGGHREDRREGPRKD” the “soluble on expression in E. coli” value was “soluble”. With “MERPGSGLAGVVVGCDDGRVEKLGPQAGFTAVACISWDNRLRLPLAGSLGLVRVDGVDATSVLAGLVLRLGAAGRPVLLDSLTIGGFNIVSPPGVERLTGSPVLAVYNYRPSLERLESGLRSSRLPLAGVRARVLSLVEEAAEASTPHGPVYLVAWGLEASEARRLVLETQVYGRKPEPVRIAHYTASEASEALRRV” the “soluble on expression in E. coli” value was “not soluble”. For “MTRNGTTSLQHDEMDTTSPPSGSGSGTAPPTTATSPPDYATAATLRSTPAQMSAAITVDLVVAAQREANFLRMIDRKAPLLYEPDVVNHALRRYETFWLPMQAAHPDLNVIPPLDVHWVWHTHMLSPIHYQEDCEKLVGKIIDHKLLSSDEIQKRYDSSVRAWDSYCSAEPYDFLASQTPPTAYKTKCNYDIAGAVQRQRNFNYQVSLPHYTSAKFLSDAVKRYIQFLLLKQTYADQFLTPCYDFDIIWHTHQVHPSSYLRDCTAIFGSLLKHDDTVNDRTKGSKLLKGEALTKKLWTTHFDEPFWRRGCMFRGHNAPAFLGFESQDLACISYGDIHVPSISLKDIPVQREQLRLKLCYGNKKVTTFNADLSQKQVTKSGFSLVWQPTESSTCASIVKFPFERRAAKDLTVELEIFDKMFLQRKDLIKLIGKATLDQLLPPSNSKSAHNVAELQLKASKDSEFTAKVNVTTSVNLNRELQLLVGDFVERQLSADSHLAYLAQCASLNRGALNANSTVHIASHSMVDTRDGTKYTVQVIHSAPLLLSMILVYGREQRLLSMAHLIGADSLPSRDQLDNNLVPFLPHLSNAEERAFVILNKEGDYAIIKGKWSGFSRKQSATKGQKAKPGNPGRLHVDAFNLLKNTVQKLEVPSADGSALFLIGDAQARLPGKRIECRSTNTAEQIASIFCVATLFVLCNPDKIRSRNDSTSVGHQAHKWPLTLACGYGRQLPTNRLLLSADQDGLGGCEIAPMLMCGVGCDGAACGACGACGACGACGGCGGCGGCGGCGGCG”, the “soluble on expression in E. coli” value was “not soluble”. For “GMAKIEKNAPTMEKKPELFNIMEVDGVPTLILSKEWWEKVANFQAKPDDLILATYPKSGTTWMHEILDMILNDGDVEKCKRAQTLDRHAFLELKFPHKEKPDLEFVLEMSSPQLIKTHLPSHLIPPSIWKENCKIVYVARNPKDCLVSYYHFHRMASFMPDPQNLEEFYEKFMSGKVVGGSWFDHVKGWWAAKDMHRILYLFYEDIKKDPKREIEKILKFLEKDISEEILNKIIYHTSFDVMKQNPMTNYTTLPTSIMDHSISPFMRKGMPGDWKNYFTVAQNEEFDKDYQKKMAGSTLTFRTEI”, the “soluble on expression in E. coli” value was “soluble”. In the case of “MSLTMKDVALEAGVSVGTVSRVINKEKGIKEVTLRKVQRAIKTLDYIPDNYARGMKKNRTETIALIIPSIWHPFFSEFAYHVEKELLKYNYKLFICNADSDSQNEIEYIEMLKQNKVDGIIGITYSDIDKYILSDLPFVSIDRHFSENVCYVTSANYKGGQTAAEELVRRDNKHLAFIGSINMYENETILRSKGFREKAKELGVDVYNFEMKEPLINPEDQIRIFLQSHKEIDGIFTINDMMALRVISVMKELGKIAPDDYQIIGFDGLKTSVDQSYLVSTIVQDIGMMAKESVAMILKMIKREEILEKRIVIPTYFWGDKTTKKEGHHHHHH”, the “soluble on expression in E. coli” value was “soluble”. For “MLDDVRLLANGLLQLGQSLREFVHKTKSQTNDIFQKLNIFDRSFYQLSVVTSEIKEEEEKLKGLSQPITVSIHQPEQRAKHTKEA”, the “soluble on expression in E. coli” value was “not soluble”. With “MTALKVGSESWWQSKHGPEWQRLNDEMFEVTFWWRDPQGSEEYSTIKRVWVYITGVTDHHQNSQPQSMQRIAGTDVWQWTTQLNANWRGSYCFIPTERDDIFSAPSPDRLELREGWRKLLPQAIADPLNPQSWKGGLGHAVSALEMPQAPLQPGWDCPQAPEIPAKEIIWKSERLKNSRRVWIFTTGDVTAEERPLAVLLDGEFWAQSMPVWPVLTSLTHRQQLPPAVYVLIDAIDTTHRAHELPCNADFWLAVQQELLPLVKVIAPFSDRADRTVVAGQSFGGLSALYAGLHWPERFGCVLSQSGSYWWPHRGGQQEGVLLEKLKAGEVSAEGLRIVLEAGIREPMIMRANQALYAQLHPIKESIFWRQVDGGHDALCWRGGLMQGLIDLWQPLFHDRS” the “soluble on expression in E. coli” value was “soluble”. For “MLPVITRFARPALMAIRPVNAMGVLRASSITKRLYHPKVIEHYTHPRNVGSLDKKLPNVGTGLVGAPACGDVMRLQIKVNDSTGVIEDVKFKTFGCGSAIASSSYMTELVQGMTLDDAAKIKNTEIAKELSLPPVKLHCSMLAEDAIKAAIKDYKSKRNTPTMLS”, the “soluble on expression in E. coli” value was “not soluble”. In the case of “HARKSLTVLVVGESARAENFGILGYGRNTTPNLNKENGLVAFTDVYSCGTETAVSVPCMFSNMGRKNYNATKARNQEGLLDVLKHAGIEVAWRDNQSGCKGTCDRVTFQDVSNLTDPLLCNSHECRDEILLQNLQGFIDSLDKDTVLVLHQMGSHGPEYYKRYPKEFEKFTPVCESNALNNCSRDSIVNAYDNTLLYTDHVLSTLIDLLRSNQAKVDTAMVYLSDHGESLGEYNLFLHGTPYVLAPDQQKHVPMLIWLSDTYQKSFAVTPDCLAKQRNAPLSQDNLFHSMLGLLKVDTKVYDPSLDMFAGCRSELAAADKQ”, the “soluble on expression in E. coli” value was “not soluble”.
